Test results reported in publication PMC8654239, “The neutrophil protein CD177 is a novel PDPN receptor that regulates human cancer-associated fibroblast physiology” (PLoS ONE, 2021).
Values belong to the molecule of their own block, whether it stands above or below them.

Legend:
[1] = target: PDPN ectodomain, monomeric, Avi-tagged, site-specifically biotinylated (Fc tag removed) (human) (UniProt Q86YL7)
[2] = target: CD177 recombinant ectodomain, Fc-tagged (human) (UniProt Q8N6Q3); experiment: SPR; CLEC-2 or CD177 ectodomains immobilised by amine coupling, 300-400 resonance units; Avi-tagged monomeric PDPN ectodomain as analyte; equilibrium fit for CD177, Langmuir model for CLEC-2
[3] = target: T1, CLEC-2 recombinant ectodomain, Fc-tagged (human, UniProt Q9P126 55-229); experiment: as above; details: both partners purified
T1 construct: C-type lectin receptor CLEC-2 (CLEC1B), human, ectodomain; The methods describe a general pRK5 vector with a C-terminal human Fc tag; CLEC-2 is a type II membrane protein, so the real end of the Fc may differ; also called Clec1b; recombinant human CLEC-2

[4] = target: T1, CLEC-2 recombinant ectodomain, Fc-tagged; experiment: SPR; CLEC-2 or CD177 ectodomains immobilised by amine coupling on GLC (Proteon XPR36) or CM5 (Biacore 3000) chips; Avi-Fc-tagged PDPN as soluble analyte at the indicated concentrations; PBS with 0.01% Tween-20 (Proteon) or HBS-P pH 7.4 (Biacore); details: both partners purified

T1 sequence (Q9P126 55-229): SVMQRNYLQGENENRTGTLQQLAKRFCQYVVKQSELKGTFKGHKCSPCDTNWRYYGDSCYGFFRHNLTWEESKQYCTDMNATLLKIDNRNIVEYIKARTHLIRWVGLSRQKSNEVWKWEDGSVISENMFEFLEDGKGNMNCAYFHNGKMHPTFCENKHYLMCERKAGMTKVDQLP
CD177 recombinant ectodomain, Fc-tagged (human), sequence (Q8N6Q3 22-408): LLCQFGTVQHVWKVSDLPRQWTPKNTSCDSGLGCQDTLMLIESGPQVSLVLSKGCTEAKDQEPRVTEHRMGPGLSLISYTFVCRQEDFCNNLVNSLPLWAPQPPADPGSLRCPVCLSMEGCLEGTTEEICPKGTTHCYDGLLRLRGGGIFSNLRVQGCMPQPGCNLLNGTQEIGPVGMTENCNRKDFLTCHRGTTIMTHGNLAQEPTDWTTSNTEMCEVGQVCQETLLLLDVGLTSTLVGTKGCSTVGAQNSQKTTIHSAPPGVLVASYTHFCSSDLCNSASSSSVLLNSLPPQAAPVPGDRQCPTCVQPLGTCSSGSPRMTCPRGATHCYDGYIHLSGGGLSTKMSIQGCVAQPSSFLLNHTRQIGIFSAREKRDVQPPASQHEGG

inhibition of CAF contractility (gel contraction assay) by recombinant CD177 [1]: 20%
Molecule: CD177 recombinant ectodomain, Fc-tagged (from UniProt Q8N6Q3 22-408) (Fc fusion)

Kd [2]: 3300 nM
Kd [3]: 210 ± 0.3 nM
B1: PDPN ectodomain, monomeric, Avi-tagged, site-specifically biotinylated (Fc tag removed) (domain or fragment, human, UniProt Q86YL7 23-131, looked up)
chain: ASTGQPEDDTETTGLEGGVAMPGAEDDVVTPGTSEDRYKSGLTTLVATSVNSVTGIRIEDLPTSESTVHAQEQSPSATASNVATSHSTEKVDGDTQTTVEKDGLSTVTL
modifications: biotin on the Avi tag (site-specific, in vitro, BirA)
notes: podoplanin (PDPN), human, ectodomain; the methods describe biotinylation of the Avi-tagged product after removal of the Fc; Also used here as the PDPN of the functional rows (there PDPN is endogenous on fibroblasts); also called podoplanin; gp38; source: mammalian cells, purified; biotinylated in vitro with BirA; not shown: Fc (human IgG1), C-terminal, cleaved

binding result [4]: binds
B2: PDPN ectodomain, Avi-Fc-tagged (Fc fusion, human, UniProt Q86YL7 23-131, looked up)
chain: B1 chain
notes: podoplanin (PDPN), human, ectodomain; pRK5 vector with C-terminal human IgG1 Fc; also called Avi-Fc-tagged PDPN; AviFc-tagged PDPN; source: mammalian cells, purified; not shown: Fc (human IgG1), C-terminal, kept
